Measurements published in US20200181262A1 (published 2020).
Changes are numbered by the printed parent chain. Values joined by “and” are separate entries in the source; they are usually repeats but may differ in a detail not shown here. Equal entries are not always repeated.

Key:
[1] = molecular target: T1, recombinant human FcRn (Sino Biological Inc. Cat. No. CT009-H08H) (human, UniProt P55899 24-290; P61769 21-119); test: scFv competition ELISA vs biotinylated parent murine antibody, captured FcRn, pH 7.4
T1 construct: Bought protein; also called hFcRn (SINO); immobilized FcRn
Method: (§1) A total of about 60 scFv antibodies from the VH CDR3 and VL CDR3 libraries were selected for further study. The scFv antibodies were prepared from bacterial periplasmic extracts, and tested by competition ELISA at pH 6.0 and pH 7.4. […] As in the ELISA used to test humanized variants, a 96 well flat bottom microtitre plate was pre-coated with 1 μg/ml of an FcRn antibody specific for an albumin-binding epitope distinct from the Fc-binding region. Binding was determined at pH 7.4 and pH 6.0.

[2] = molecular target: T1, recombinant human FcRn (Sino Biological …); test: scFv competition ELISA vs biotinylated parent murine antibody, captured FcRn, pH 6
Method: as §1

[3] = molecular target: T2, FcRn (analyte of the BIACORE studies of Tables 9-11, tables titled anti-human FcRn mAbs) (human, UniProt P55899 24-290; P61769 21-119); test: SPR, antibody captured on protein A, FcRn 50-0.02 nM, 1:1 model
T2 construct: also called analyte (FcRn)
Method: For kinetic analysis, a 2-fold dilution range was selected from 50-0.02 nM FcRn. The association phase of FcRn analyte was monitored for 450 seconds, and dissociation was measured for 1500 seconds, at 40 μl/min. Fc1 was a reference channel and was subtracted from other flow cells to correct for non-specific binding. Kinetic values are based on a 1:1 binding model (Table 11).

[4] = molecular target: T3, monomeric His-tagged human FcRn (hFcRn) (JTA) (human, UniProt P55899 24-290; P61769 21-119, limits assumed); test: SPR (Biacore 3000), mAb amine-coupled, His-tagged hFcRn injected, 1:1 Langmuir, pH 7.4
T3 construct: In-house soluble His-tagged FcRn; also called monomeric human FcRn produced in-house; not shown: His tag

[5] = molecular target: T3, monomeric His-tagged human FcRn (hFcRn) …; test: SPR (Biacore 3000), mAb amine-coupled, His-tagged hFcRn injected, 1:1 Langmuir, pH 6.0
Method: The coupling was performed by injecting 3 μg/ml of each protein into 10 mM sodium acetate, pH 4.5 (GE Healthcare), using the amine coupling kit (GE Healthcare). […] All SPR experiments were conducted at 25° C. with a flow rate of 40 μl/min. Binding data were zero-adjusted, and the reference cell value subtracted. The Langmuir 1:1 ligand binding model provided by the BIAevaluation software (version 4.1) was used to determine the binding kinetics. The closeness of the fit is described by the statistical value χ².

[6] = molecular target: T2, FcRn (analyte of the BIACORE studies of …); test: SPR (BIACORE), antibody captured on protein A CM5 chip, FcRn analyte
From the text: Antibodies were captured on a CM5 chip coated with protein A and analyte (FcRn) flowed over the surface.

[7] = molecular target: T2, FcRn (analyte of the BIACORE studies of …); test: SPR (BIACORE), antibody immobilized on CM5, FcRn injected, 1:1 Langmuir, pH 6.0
Method: (§2) Antibodies were diluted into 10 mM NaAc, pH 4.5, and immobilized onto BIACORE® CM5 chips to RU levels of approximately 500-1000. Analysis was performed by injection of FcRn at concentrations of 12-800 nM in 1×PBS-P at pH 7.4 or pH 6.0.

[8] = molecular target: T3, monomeric His-tagged human FcRn (hFcRn) …; test: SPR (Biacore 3000), H3Vk2 amine-coupled, hFcRn (JTA) injected, 1:1 Langmuir, pH 7.4
Method: (§3) All SPR experiments were conducted at 25° C. with a flow rate of 40 μl/min. Binding data were zero-adjusted, and the reference cell value subtracted. The Langmuir 1:1 ligand binding model provided by the BIAevaluation software (version 4.1) was used to determine the binding kinetics. The closeness of the fit is described by the statistical value χ2.

[9] = molecular target: T4, cynomolgus FcRn (cFcRn) obtained from SINO Biological Inc (cynomolgus monkey, UniProt Q8SPV9 24-297; Q8SPW0 21-119); test: SPR (Biacore 3000), H3Vk2 amine-coupled, cynomolgus FcRn (SINO) injected, 1:1 Langmuir, pH 7.4
T4 construct: also called pFcRn (SINO); pFeltn (SINO)
Method: as §3

[10] = molecular target: T3, monomeric His-tagged human FcRn (hFcRn) …; test: SPR (Biacore 3000), mAb amine-coupled, His-tagged hFcRn (JTA) injected, 1:1 Langmuir, pH 6.0
Method: In a further study, surface plasmon resonance (SPR) was conducted using a Biacore 3000 instrument (GE Healthcare) with CM5 sensor chips coupled with antibodies (˜550 resonance units (RU)) using amine-coupling chemistry as described by the manufacturer. […] All SPR experiments were conducted at 25° C. with a flow rate of 40 μl/min. Binding data were zero-adjusted, and the reference cell value subtracted. The Langmuir 1:1 ligand binding model provided by the BIAevaluation software (version 4.1) was used to determine the binding kinetics. The closeness of the fit is described by the statistical value χ2.

[11] = molecular target: human FcRn as expressed in cells (human whole blood; hFcRn transgenic mice) (human, UniProt P55899 24-365; P61769 21-119); test: cell-based or functional assay
[12] = molecular target: T2, FcRn (analyte of the BIACORE studies of …); test: SPR (BIACORE), antibody immobilized on CM5, FcRn injected, 1:1 Langmuir, pH 7.4
Method: as §2

T1 sequence (P55899 24-290 limits assumed, chain 1 of 2): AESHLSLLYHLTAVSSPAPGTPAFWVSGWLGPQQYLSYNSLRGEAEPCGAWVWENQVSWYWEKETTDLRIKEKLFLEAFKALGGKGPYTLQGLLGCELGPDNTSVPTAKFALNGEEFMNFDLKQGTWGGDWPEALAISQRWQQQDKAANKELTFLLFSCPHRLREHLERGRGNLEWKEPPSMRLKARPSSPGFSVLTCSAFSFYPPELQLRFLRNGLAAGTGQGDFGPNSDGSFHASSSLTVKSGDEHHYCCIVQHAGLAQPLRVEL
T1 sequence (P61769 21-119 limits assumed, chain 2 of 2): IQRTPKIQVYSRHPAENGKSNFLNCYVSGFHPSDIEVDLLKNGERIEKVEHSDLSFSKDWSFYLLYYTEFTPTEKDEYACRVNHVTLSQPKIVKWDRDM
T2 sequence (P55899 24-290 limits assumed, chain 1 of 2): as the sequence (P55899 24-290 limits assumed, chain 1 of 2) above
T2 sequence (P61769 21-119 limits assumed, chain 2 of 2): as the sequence (P61769 21-119 limits assumed, chain 2 of 2) above
T3 sequence (P55899 24-290 limits assumed, chain 1 of 2): as the sequence (P55899 24-290 limits assumed, chain 1 of 2) above
T3 sequence (P61769 21-119 limits assumed, chain 2 of 2): as the sequence (P61769 21-119 limits assumed, chain 2 of 2) above
human FcRn as expressed in cells (human whole blood; hFcRn transgenic mice), sequence (P55899 24-365, chain 1 of 2): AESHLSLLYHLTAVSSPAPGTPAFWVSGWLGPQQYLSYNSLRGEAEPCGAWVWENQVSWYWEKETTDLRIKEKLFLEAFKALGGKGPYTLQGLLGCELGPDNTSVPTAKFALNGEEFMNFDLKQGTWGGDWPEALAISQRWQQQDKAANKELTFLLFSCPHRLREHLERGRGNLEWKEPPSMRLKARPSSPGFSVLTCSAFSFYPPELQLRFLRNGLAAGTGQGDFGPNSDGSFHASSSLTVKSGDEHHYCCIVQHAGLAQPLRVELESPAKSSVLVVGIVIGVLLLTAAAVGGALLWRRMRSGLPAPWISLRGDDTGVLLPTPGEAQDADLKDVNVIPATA
human FcRn as expressed in cells (human whole blood; hFcRn transgenic mice), sequence (P61769 21-119, chain 2 of 2): as the sequence (P61769 21-119 limits assumed, chain 2 of 2) above
T4 sequence (Q8SPV9 24-297 limits assumed, chain 1 of 2): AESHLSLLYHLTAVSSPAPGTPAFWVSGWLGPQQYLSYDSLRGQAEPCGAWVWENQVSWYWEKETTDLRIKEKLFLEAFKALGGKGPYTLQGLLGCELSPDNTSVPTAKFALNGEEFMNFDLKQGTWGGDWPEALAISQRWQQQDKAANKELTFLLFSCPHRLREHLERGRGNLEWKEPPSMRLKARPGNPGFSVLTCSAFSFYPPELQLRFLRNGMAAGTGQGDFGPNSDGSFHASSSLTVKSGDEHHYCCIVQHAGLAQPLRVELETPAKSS
T4 sequence (Q8SPW0 21-119 limits assumed, chain 2 of 2): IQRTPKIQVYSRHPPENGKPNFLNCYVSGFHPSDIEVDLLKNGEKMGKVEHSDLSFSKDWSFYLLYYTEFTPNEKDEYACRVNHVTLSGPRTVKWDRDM

B1: H1 VH1 scFv with humanized parental Vκ1 (scFv)
scFv: QVQLVQSGAELKKPGASVKLSCKASGYTFTSYGISWVKQATGQGLEWIGEIYPRSGNTYYNEKFKGRATLTADKSTSTAYMELRSLRSEDSAVYFCARSTTVSPPPLWGTGTTVTVSSGGGGSGGGGSGGGGSDIQMTQSPSYLSASVGDRVTITCKASDHINNWLAWYQQKPGQAPRLLISGATSLETGVPSRFSGSGTGKDYTLTISSLQTEDFATYYCQQYWSTPYTFGGGTKVEIK
notes: from bacterial periplasmic extracts
fold decrease in IC50 (relative to humanized parent scFV) [1]: 36.4 fold
fold decrease in IC50 (relative to humanized parent scFV) [2]: 17.1 fold

B2: H2 VH1 scFv with humanized parental Vκ1 (scFv)
scFv: B1 scFv with S103A, P106A, L107H
fold decrease in IC50 (relative to humanized parent scFV) [1]: 23.8 fold
fold decrease in IC50 (relative to humanized parent scFV) [2]: 14.2 fold

B3: A7 VH1 scFv with humanized parental Vκ1 (scFv)
scFv: B1 scFv with L107I
fold decrease in IC50 (relative to humanized parent scFV) [1]: 20 fold
fold decrease in IC50 (relative to humanized parent scFV) [2]: 17 fold

B4: F7 VH1 scFv with humanized parental Vκ1 (scFv)
scFv: B1 scFv with S103A
fold decrease in IC50 (relative to humanized parent scFV) [1]: 26.4 fold
fold decrease in IC50 (relative to humanized parent scFV) [2]: 16.4 fold

B5: H4 VH1 scFv with humanized parental Vκ1 (scFv)
scFv: B1 scFv with P104A, P106G, L107V
fold decrease in IC50 (relative to humanized parent scFV) [1]: 9.29 fold
fold decrease in IC50 (relative to humanized parent scFV) [2]: 6.5 fold

B6: E4 VH1 scFv with humanized parental Vκ1 (scFv)
scFv: B1 scFv with S103H, P105D, P106H, L107N
fold decrease in IC50 (relative to humanized parent scFV) [1]: 16.8 fold
fold decrease in IC50 (relative to humanized parent scFV) [2]: 3.65 fold

B7: A4 VH1 scFv with humanized parental Vκ1 (scFv)
scFv: B1 scFv with P105A, P106D, L107F, W108R
fold decrease in IC50 (relative to humanized parent scFV) [1]: 7.18 fold
fold decrease in IC50 (relative to humanized parent scFV) [2]: 5.04 fold

B8: G4 VH1 scFv with humanized parental Vκ1 (scFv)
scFv: B1 scFv with P106H
fold decrease in IC50 (relative to humanized parent scFV) [1]: 29 fold
fold decrease in IC50 (relative to humanized parent scFV) [2]: 18.9 fold

B9: E7 VH1 scFv with humanized parental Vκ1 (scFv)
scFv: B1 scFv with L11P, P106H
fold decrease in IC50 (relative to humanized parent scFV) [1]: 37.4 fold
fold decrease in IC50 (relative to humanized parent scFV) [2]: 16.4 fold

B10: G9 VH1 scFv with humanized parental Vκ1 (scFv)
scFv: B1 scFv with P106R, L107V
fold decrease in IC50 (relative to humanized parent scFV) [1]: 25.3 fold
fold decrease in IC50 (relative to humanized parent scFV) [2]: 21.7 fold

B11: G7 VH1 scFv with humanized parental Vκ1 (scFv)
scFv: B1 scFv with S103A, P106G, L107H
fold decrease in IC50 (relative to humanized parent scFV) [1]: 30.8 fold
fold decrease in IC50 (relative to humanized parent scFV) [2]: 17.7 fold

B12: C4 VH1 scFv with humanized parental Vκ1 (scFv)
scFv: B1 scFv with S103A, P106R
fold decrease in IC50 (relative to humanized parent scFV) [1]: 24.4 fold
fold decrease in IC50 (relative to humanized parent scFV) [2]: 18.6 fold

B13: G9VH1_Vκ2 antibody (antibody, V domains shown)
VH: QVQLVQSGAELKKPGASVKLSCKASGYTFTSYGISWVKQATGQGLEWIGEIYPRSGNTYYNEKFKGRATLTADKSTSTAYMELRSLRSEDSAVYFCARSTTVSPPRVWGTGTTVTVSS
VL: DIQMTQSPSSLSASVGDRVTITCKASDHINNWLAWYQQKPGQAPRLLISGATSLETGVPSRFSGSGTGKDYTLTISSLQPEDFATYYCQQYWSTPYTFGGGTKVEIK
notes: also called G9Vκ2
Kd [3]: 0.39 nM and 0.4 nM
kon [3]: 318000 M⁻¹ s⁻¹
Kd [4]: 4.9 nM
kon [4]: 61000 M⁻¹ s⁻¹
Kd [5]: 7.4 nM
kon [5]: 85000 M⁻¹ s⁻¹

B14: H1VH1_Vκ2 antibody (antibody, IgG4, V domains shown)
VH: B13 VH with R106P, V107L
VL: B13 VL
Kd [3]: 0.32 nM
koff [3]: 9.28e-05 s⁻¹
kon [3]: 289000 M⁻¹ s⁻¹

B15: VH1_G9/Vκ2_E8 IgG4 (antibody, V domains shown)
VH: B13 VH
VL: B13 VL with P80T, Q89H, W92Y
notes: bivalent IgG4, kappa; also called G9VH1_E8Vκ2; G9VH1E8Vκ2
Kd [6]: 0.84 nM
Kd [7]: 0.6 nM

B16: H3VH1_Vκ2 antibody (anti-FcRn mAb H3Vκ2) (antibody, V domains shown)
VH: B13 VH with S103R, R106G, V107I
VL: B13 VL
notes: also called H3Vk2; H3VK2
Kd [4]: 5.1 nM
Kd [8]: 4.6 nM
Kd [9]: 11.9 nM
Kd [10]: 3.8 nM
plasma concentration of HuLys11 (human IgG1) in hFcRn transgenic mice after 20 mg/kg [11]: 3 fold
Kd [5]: 3.8 nM

B17: VH1_A8/Vκ2_E8 IgG4 (antibody, V domains shown)
VH: B13 VH with R87K, R106A, V107H
VL: B13 VL with P80T, Q89H, W92Y
notes: bivalent IgG4, kappa; also called A8VH1E8Vκ2; A8/E8VK2
Kd [7]: 1.4 nM
koff [7]: 0.000438 s⁻¹
kon [7]: 319000 M⁻¹ s⁻¹
Kd [12]: 18.2 nM
koff [12]: 0.000679 s⁻¹
kon [12]: 43800 M⁻¹ s⁻¹

B18: VH1_G4/Vκ2_E8 IgG4 (antibody, V domains shown)
VH: B13 VH with R106H, V107L
VL: B13 VL with P80T, Q89H, W92Y
notes: bivalent IgG4, kappa; also called G4VH1E8Vκ2
Kd [7]: 1.3 nM
koff [7]: 0.000298 s⁻¹
kon [7]: 229000 M⁻¹ s⁻¹
Kd [12]: 13.1 nM
koff [12]: 0.000544 s⁻¹
kon [12]: 54300 M⁻¹ s⁻¹
